Assay results taken from article PMC7116876, “Mechanistic Insights into Regulation of the ALC1 Remodeler by the Nucleosome Acidic Patch” (Cell reports, 2020).
Values belong to the substance of their own block, whether it stands above or below them.

Legend:
[1] = biological target: WT/WT nucleosome (Xenopus laevis histone octamer with intact acidic patches on Widom 601 DNA) (Xenopus laevis); assay: cryo-EM structure; biotinylated ALC1 linker peptide at 10-fold molar excess over core nucleosomes (no linker DNA), cross-linked with 0.05% glutaraldehyde, purified on monomeric avidin; 15 mM HEPES pH 7.5, 50 mM NaCl, 1 mM DTT
[2] = biological target: WT/WT nucleosome (Xenopus laevis histone octamer with intact acidic patches on Widom 601 DNA) (Xenopus laevis)
[3] = biological target: WT/WT nucleosome (Xenopus laevis histone octamer with intact acidic patches on Widom 601 DNA) (Xenopus laevis); remark: listed apart in the source
[4] = tested on: T1, ALC1RLS peptide-TAMRA (Homo sapiens); assay: fluorescence anisotropy; settings: Fluorescence anisotropy: 15 mM HEPES pH 7.5, 1 mM EDTA, 5% glycerol, 1 mM DTT, 10 nM peptide, 30 C
T1 sequence: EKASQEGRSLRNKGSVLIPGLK

[5] = biological target: ALC1^RLS peptide-TAMRA (human); assay: fluorescence polarisation; fluorescence anisotropy; 10 nM TAMRA-labelled peptide, nucleosomes without linker DNA titrated; 30°C; 15 mM HEPES pH 7.5, 1 mM EDTA, 5% glycerol, 1 mM DTT; quadratic fit

- stoichiometry N (peptides per nucleosome) [1]: 2
Substance: ALC1 linker peptide-Biotin

- smFRET, average translocation pause duration on WT/WT nucleosomes with 3 bp of linker DNA; fold increase against ALC1^fl R860W [2]: > 4 fold
- Michaelis constant of remodeling of WT/WT nucleosomes (10 nM); factor of increase against ALC1^fl R860W [3]: 5.3 fold
- maximum rate of remodeling of WT/WT nucleosomes (10 nM); factor of decrease against ALC1^fl R860W [3]: 6.4 fold
- nucleosome-stimulated ATPase rate under saturating conditions (Vmax estimated); fold reduction against ALC1^fl R860W [3]: 2 fold
- nucleosome-stimulated ATPase rate, 20 μM remodeler, 2 μM WT/WT nucleosomes; fold reduction against ALC1^fl R860W [3]: 2.5 fold
Substance: ALC1^fl R611A/S612A/R860W (human ALC1 16-879) (from UniProt Q86WJ1 16-879) (enzyme)

Substance: WT/WT nucleosome 0-601-0
- Kd [4]: 1.1 µM

- Kd [5]: 1.1 µM
Substance: WT/WT nucleosome (Xenopus laevis histone octamer with intact acidic patches on Widom 601 DNA) (complex)
